Data on one molecule can be found in paper PMC10319729.

The target of the test is LGR4 co-expressed with ZNRF3ΔRING on HEK293T cells (LGR4-E3 ligase complex), Q9BXB1.

B1: RSPO2 furin domain with a C-terminal His tag (R2Fu-His), Q6UXX9 37-143 (domain or fragment)
chain: NPICKGCLSCSKDNGCSRCQQKLFFFLRREGMRQYGECLHSCPSGYYGHRAPDMNRCARCRIENCDSCFSKDFCTKCKVGFYLHRGRCFDECPDGFAPLEETMECVE
The molecule B1 had an EC50 of TOPFlash (Wnt/β-catenin reporter) activity in STF cells, which endogenously express LGR4, RNF43 and ZNRF3 of 0.79 nM.
